Results: paper PMC5058626 (mAbs, 2016)
Where two headings read alike, the source gives them in different places. Blank lines part the entries; values can stand above or below the molecule they belong to.

Experiments:
Assay in all cases: SPR
[1] = target: CA645 gL4gH5 Fab (human) [IgG part: P01857]
[2] = target: CA645 gL4gH5 Fab (human) [IgG part: P01857]; remark: listed apart in the source
[3] = target: CA645 gL4gH5 Fab (human) [IgG part: P01857]; remark: listed apart in the source
[4] = target: CA645 gL4gH5 Fab (human) [IgG part: P01857]; remark: listed apart in the source
[5] = target: CA645 gL4gH5 Fab (human) [IgG part: P01857]; remark: listed apart in the source
[6] = target: CA645 gL4gH5 Fab (human) [IgG part: P01857]; remark: listed apart in the source
human serum albumin [7] = target: T1, human serum albumin (Homo sapiens, UniProt P02768)
human serum albumin [8] = target: T1, human serum albumin; remark: listed apart in the source
human serum albumin [9] = target: T1, human serum albumin; remark: listed apart in the source
human serum albumin [10] = target: human serum albumin (Homo sapiens, UniProt P02768); remark: listed apart in the source
mouse serum albumin = mouse serum albumin (Mus musculus, UniProt P07724)
human serum albumin [11] = target: T1, human serum albumin; remark: listed apart in the source

Chain of mouse serum albumin (P07724 25-608): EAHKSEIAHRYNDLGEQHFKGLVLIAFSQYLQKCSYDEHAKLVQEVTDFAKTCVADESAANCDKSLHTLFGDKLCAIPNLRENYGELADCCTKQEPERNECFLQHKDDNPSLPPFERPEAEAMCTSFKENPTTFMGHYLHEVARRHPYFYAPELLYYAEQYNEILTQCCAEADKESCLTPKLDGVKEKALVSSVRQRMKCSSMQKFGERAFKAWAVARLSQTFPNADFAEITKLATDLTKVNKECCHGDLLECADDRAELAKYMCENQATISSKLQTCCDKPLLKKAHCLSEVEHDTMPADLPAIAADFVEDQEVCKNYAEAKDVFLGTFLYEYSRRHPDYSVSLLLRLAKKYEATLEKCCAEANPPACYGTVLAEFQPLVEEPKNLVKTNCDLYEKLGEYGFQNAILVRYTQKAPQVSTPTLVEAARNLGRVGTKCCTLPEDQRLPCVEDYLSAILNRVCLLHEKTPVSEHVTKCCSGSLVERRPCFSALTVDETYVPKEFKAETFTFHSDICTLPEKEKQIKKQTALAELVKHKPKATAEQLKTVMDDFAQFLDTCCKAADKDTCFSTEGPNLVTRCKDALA

B1: CA645 gL5gH5 Fab (Fab, V domains shown)
VH: EVQLLESGGGLVQPGGSLRLSCAVSGIDLSNYAINWVRQAPGKGLEWIGIIWASGTTFYATWAKGRFTISRDNSKNTVYLQMNSLRAEDTAVYYCARTVPGYSTAPYFDLWGQGTLVTVSS
VL: DIQMTQSPSSVSASVGDRVTITCQSSPSVASNFLSWYQQKPGKAPKLLIYEASKLTSGVPSRFSGSGSGTDFTLTISSLQPEDFATYYCGGGYSSISDTTFGGGTKVEIK
Kd (human serum albumin [7]): 453 nM | koff (human serum albumin [7]): 0.0571 s⁻¹ | kon (human serum albumin [7]): 126000 M⁻¹ s⁻¹

B2: CA645 gL5gH47 Fab (Fab, V domains shown)
VH: EVQLLESGGGLVQPGGSLRLSCAVSGIDLSNYAINWVRQAPGKGLEWIGIIWASGTTFYATWAKGRFTISRDNSKNTVYLQMNSLRAEDTAVYYCARTVPGYSSAPYFDLWGQGTLVTVSS
VL: DIQMTQSPSSVSASVGDRVTITCQSSPSVASNFLSWYQQKPGKAPKLLIYEASKLTSGVPSRFSGSGSGTDFTLTISSLQPEDFATYYCGGGYSSISDTTFGGGTKVEIK
Kd (human serum albumin [8]): 52000 nM

B3: CA645 gL4gH37 Fab (Fab, V domains shown)
VH: EVQLLESGGGLVQPGGSLRLSCAVSGIDLSNYAINWVRQAPGKGLEWIGIIWASGTTEYATWAKGRFTISRDNSKNTVYLQMNSLRAEDTAVYYCARTVPGYSTAPYFDLWGQGTLVTVSS
VL: DIQMTQSPSSVSASVGDRVTITCQSSPSVWSNFLSWYQQKPGKAPKLLIYEASKLTSGVPSRFSGSGSGTDFTLTISSLQPEDFATYYCGGGYSSISDTTFGGGTKVEIK
Kd (human serum albumin [7]): 955 nM | koff (human serum albumin [7]): 0.0583 s⁻¹ | kon (human serum albumin [7]): 61000 M⁻¹ s⁻¹

B5: CA645 gL19gH5 Fab (Fab, V domains shown)
VH: EVQLLESGGGLVQPGGSLRLSCAVSGIDLSNYAINWVRQAPGKGLEWIGIIWASGTTFYATWAKGRFTISRDNSKNTVYLQMNSLRAEDTAVYYCARTVPGYSTAPYFDLWGQGTLVTVSS
VL: DIQMTQSPSSVSASVGDRVTITCQSSPSVWDNFLSWYQQKPGKAPKLLIYEASKLTSGVPSRFSGSGSGTDFTLTISSLQPEDFATYYCGGGYSSISDTTFGGGTKVEIK
Kd (human serum albumin [10]): 5 nM

B6: CA645 recombinant rabbit Fab (Fab, V domains shown)
VH: QSLEESGGRLVTPGTPLTLTCTVSGIDLSNYAINWVRQAPGKGLEWIGIIWASGTTFYATWAKGRFTISRPSTTVDLEMTSLTTADTATYFCARTVPGYSTAPYFDLWGPGTLVTVSS
VL: AAVLTQTPSPVSAAVGGTVTINCQSSPSVWSNFLSWYQQKPGQPPKLLIYEASKLTSGVPSRFKGSGSGTQFTLTISDVQCGDAATYYCGGGYSSISDTTFGGGTKVVVK
Kd (mouse serum albumin): 2.6 nM | Kd (human serum albumin [11]): 0.31 nM

Results, then the molecule that gave them:

Kd [1]: 1.23 nM | Kd [2]: 12.5 nM | Kd [3]: 13.3 nM | Kd [4]: 4.6 nM | Kd [5]: 10.7 nM | Kd [6]: 1.8 nM
Molecule: human serum albumin (from UniProt P02768 25-609) (natural protein)

binding result (human serum albumin [9]): no binding
B4: CA645 gL5gH37 Fab (Fab, V domains shown)
VH: EVQLLESGGGLVQPGGSLRLSCAVSGIDLSNYAINWVRQAPGKGLEWIGIIWASGTTEYATWAKGRFTISRDNSKNTVYLQMNSLRAEDTAVYYCARTVPGYSTAPYFDLWGQGTLVTVSS
VL: DIQMTQSPSSVSASVGDRVTITCQSSPSVASNFLSWYQQKPGKAPKLLIYEASKLTSGVPSRFSGSGSGTDFTLTISSLQPEDFATYYCGGGYSSISDTTFGGGTKVEIK
